Experimental data taken from patent US20080227700A1, “Compositions and Methods for Treatment of Protein Misfolding and Protein Aggregation Diseases” (priority 2004, published 2008).

Columns and labels:
βL crystallin = assay: Chaperone assay, thermal aggregation of βL crystallin; type: biochemical; details: light scattering at λ=340 nm; 1:10 target protein:peptide; comparison among five peptides
Procedure: Chaperone Assays. Chaperone assays of the five peptides were performed using previously established methods with minor modifications. Muchowski et al., J Mol Biol 289: 397-411, 1999. A 1:1 monomeric molar ratio of chaperone: target protein was determined to be the optimum ratio and all subsequent chaperone assays of the β3 mutants were performed in triplicate and at a 1:1 monomeric molar ratio of chaperone: target protein in a 96-well ELISA micro-titer plate. […] of the chaperone and βL crystallin were mixed in a total volume of 200 μL buffer (5 mM PBS, pH 7.0). Light scattering at λ=340 nm was measured using a Multiskan MCC/340 plate reader before heating (time=0). After the first reading, the plate was heated at 50° C. and readings were taken at fifteen minute intervals for one hour.
The ability of the peptides to suppress the thermal aggregation of βL crystallin was measured spectrophotometrically as light scattering at λ=340 nm from solutions containing 1:10 monomeric molar ratio of target protein: peptide.

γD crystallin [1] = biological target: T1, γD crystallin (Homo sapiens, UniProt P07320); assay: γD crystallin ThioflavinT fluorescence (fibrillization of γD crystallin); type: biochemical; details: 1:1 γD crystallin:peptide; for effect on the fibrillization of γD crystallin: ThioflavinT fluorescence after 72 hrs, comparison among αB crystallin and five peptides
T1 sequence (P07320 1-174): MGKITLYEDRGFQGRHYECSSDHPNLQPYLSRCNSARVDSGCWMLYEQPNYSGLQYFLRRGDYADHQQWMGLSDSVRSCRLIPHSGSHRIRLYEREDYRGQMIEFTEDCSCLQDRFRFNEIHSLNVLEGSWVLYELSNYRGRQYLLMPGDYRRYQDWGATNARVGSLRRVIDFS
Procedure: γD crystallin Thioflaviin T fluorescence. γD crystallin fibrils were formed in a similar way to that of γ crystalline. Meehan et al., J Biol Chem 279: 3413-3419, 2004. Peptides were dissolved to […] IN tfe AND DILUTED to 0.91 mM stock solutions in 10% TFE, pH 2.0.
3.5 mg of ThioflavinT was dissolved in 100 μL of 50 mM Glycine pH 8.5. A stock solution of 1 mg/ml (0.22 mM) Aβ was prepared. 20 μl Aβ, 5 μl chaperone, 2 μl ThioflavinT was mixed with 73 μL 10% TFE, pH 2.0. Fluorescence was read using a Beckman Coultier DTX 880 multimode detector. Samples were heated at 50° C. for 72 hours and fluorescence was read again.
The fibrillization of γD crystallin was measured as fluorescence of the fluorescent dye ThioflavinT from solutions containing 1:1 monomeric molar ratio of γD crystallin:peptide. In the absence of fibrils ThioflavinT had little or no fluorescence. The fluorescence of the ThioflavinT bound to γD crystallin fibrils in the absence of any other molecule after 72 hrs was set to 100%. […] Fibril formation=ΔfluorescenceγD crystallin (with chaperone)*100/ΔfluorescenceγD crystallin (without chaperone).

Aβ = Aβ (Homo sapiens, UniProt P05067); assay: Aβ ThioflavinT fluorescence (fibrillization of Aβ); type: biochemical; details: ThioflavinT; 50° C. for 72 hours; 1:10 Aβ:peptide; no chaperone 1,324,974,048
Procedure: Aβ Thioflaviin T fluorescence. Aβ fibrils were grown in the presence and absence of αB crystallin and peptides in conditions similar to that previously described for the presence of αB crystallin. Bakthisaran et al., Biochem J, 2005. Peptides were dissolved to 9.1 mM in trifluorethanol (TFE) and diluted to 0.91 mM stock solutions in 50 mM PBS, 100 mM NaCl, pH 7.4. 3.5 mg of ThioflavinT was dissolved in 100 μl of 50 mM Glycine pH 8.5. A stock solution of 1 mg/ml (0.22 mM) Aβ was prepared. 20 μl Aβ, 50 μl chaperone, 2 μl ThioflavinT was mixed with 28 μl 50 mM PBS, 100 mM NaCl, pH 7.4. Fluorescence was read using a Beckman Coultier DTX 880 multimode detector. Samples were heated at 50° C. for 72 hours and fluorescence was read again.
The fibrillization of Aβ was measured as fluorescence of the fluorescent dye ThioflavinT from solutions containing 1:10 monomeric molar ratio of Aβ:peptide. In the absence of Aβfibrils, ThioflavinT had little or no fluorescence. The fluorescence of the ThioflavinT bound to Aβ fibrils in the absence of any other molecule after 72 hrs was set to 100%. […] Fibril formation=ΔfluorescenceAβ (with chaperone)*100/ΔfluorescenceAβ (without chaperone).

[2] = biological target: T2, porcine citrate synthase (CS) (Sus scrofa, UniProt P00889); assay: Protein pin array interaction with citrate synthase; type: binding; details: CS as target protein, unheated and pre-heated
T2 construct: purchased
T2 sequence (P00889 28-464): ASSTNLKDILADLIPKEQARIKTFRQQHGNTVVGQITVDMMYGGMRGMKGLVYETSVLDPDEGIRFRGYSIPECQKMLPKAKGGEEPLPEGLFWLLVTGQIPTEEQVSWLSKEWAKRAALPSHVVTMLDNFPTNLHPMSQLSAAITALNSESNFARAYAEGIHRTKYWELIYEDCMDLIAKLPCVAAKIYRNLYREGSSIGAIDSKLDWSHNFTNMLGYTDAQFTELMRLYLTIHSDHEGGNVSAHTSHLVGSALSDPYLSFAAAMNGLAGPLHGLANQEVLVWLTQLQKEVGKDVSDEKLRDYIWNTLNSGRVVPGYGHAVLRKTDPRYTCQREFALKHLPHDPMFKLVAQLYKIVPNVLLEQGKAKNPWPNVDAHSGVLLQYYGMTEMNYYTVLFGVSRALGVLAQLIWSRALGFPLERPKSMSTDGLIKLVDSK
Text: (§1) Synthesis of Pins, binding and detection of peptides binding to ligand proteins. The αB crystallin protein pin array was used to measure the interaction between peptides and chaperone target proteins including bovine βH crystallin, human γD crystallin, equine alcohol dehydrogenase (ADH) and porcine citrate synthase (CS) as described (FIG. 12). Ghosh and Clark, Protein Sci 14: 684-95, 2005.
(§2) Refer to the methods section for detailed protocols. The absorbance corresponding to the blue coloration in each well was measured at λ=450 nm and plotted against the amino acid sequence of the corresponding peptide in that well (FIGS. 13 and 14). Wells containing peptides that have strong interactions with target proteins are dark blue and wells containing peptides that have weak or no interaction with target proteins are light blue or clear.
(§3) The purity of the target proteins used in the pin array assays, bovine βH crystallin, human γD crystallin, equine alcohol dehydrogenase (ADH) and porcine citrate synthase (CS) were determined to be >90% by SDS-PAGE. In addition, primary antibodies for each target protein were specific to that target protein and consequently contaminating proteins that may bind to the peptides will not be detected. Eighty-four sequential and overlapping peptide fragments corresponding to residues 1-175 of human αB crystallin were synthesized employing a simultaneous peptide synthesis strategy developed by Geysen, called Multipin Peptide Synthesis (Mimotopes, San Diego, Calif.). Geysen, Southeast Asian J Trop Med Public Health 21: 523-33, 1990; Chin et al., J Org Chem 62: 538-539, 1997. Peptides were immobilized on derivatized polyethylene pins arranged in a microtiter ELISA plate format. Each peptide was eight amino acids in length and consecutive peptides were offset by two amino acids. All peptides were bound covalently to the surface of the plastic pins. The first peptide was […] for human αB crystallin.
(§4) Ghosh and Clark, Protein Sci 14: 684-95, 2005. […] The intensity of the blue color in the wells was measured at 450 nm using an ELISA plate-reader (BioTek, Winooski, Vt.). The intensity of the blue color (plotted on the X-axis) was a measure of the interaction between αB crystallin peptides (plotted on the Y-axis) and target proteins. To measure the effect of temperature on the interactions between interactive peptides and the target proteins, the target proteins were heated in a water-bath at 45° C. for fifteen minutes prior to use. Pin arrays are unable to differentiate between monomers, dimers or oligomers of target proteins that exist in solution. Instead, pin arrays are very sensitive detectors of interactions between individual peptides and the entire population (monomers, dimers or oligomers) of specific target proteins that may exist in solution under specific conditions. Each target protein was assayed two to five times. A single pin array was used for all experiments and no change in interactions was observed after more than thirty repetitions. The last three peptides of the protein pin array, 163REEKPAVT170, 165EKPAVTAA172, 167PAVTAAPK174, correspond to the epitope (163REEKPAVTAAPKK175) recognized by the primary antibody for human αB crystallin. A positive reaction is observed for these three peptides in the absence of human αB crystallin as the ligand due to direct binding of the anti-human αB crystallin antibody to these three peptides. The loss of efficiency for the pin array was measured using this assay. The loss of efficiency for the pin array was determined to be <5% by after more than 30 assays.
(§5) The Y-axis lists the amino acid sequences of the 8-mer peptides that are immobilized sequentially in a 96-well format. […]

beta amyloid = beta amyloid (Homo sapiens, UniProt P05067); assay: αB crystallin protein pin array screened for binding to beta amyloid; details: immobilized 8-mer peptide; absorption at 450 nm; assayed 2-5 times
Text: αB Crystallin peptides that bind the target protein beta-amyloid were identified by screening an αB crystallin protein pin array, which provides a systematic method for evaluating interactions between peptides corresponding to residues 1-175 of human αB crystallin and selected target proteins in a parallel and simultaneous manner.
Peptides were synthesized on derivatized polyethylene pins arranged in a microtiter plate format. Each peptide was 8 amino acids in length and consecutive peptides were offset by 2 amino acids. All peptides were covalently bonded to the surface plastic pins. The first immobilized peptide was 1MDIAIHHP8 and the last peptide was 168PAVTAAPK175 for the human αB crystallin.
After synthesis, the pins were pre-coated at room temperature with 2% Bovine Serum Albumin (BSA), 0.1% Tween-20 and 0.1% Sodium azide in 10 mM phosphate buffered saline pH 7.2 (PBS) for 1 hr, and washed three times for 10 mins each with 10 mM PBS. To screen for binding to the peptides, fixed concentrations of the target protein beta amyloid was dissolved in 10 mM PBS, containing 0.05% Tween-20, added to each well and incubated for 1 hr at room temperature. The pin array was washed three times for 10 mins each with 10 mM PBS, containing 0.05% Tween-20. Monoclonal or polyclonal primary antibodies for the target protein beta amyloid was diluted into PBS buffer, added to each well and incubated for 1 hr at room temperature. Subsequently, the pin array was washed three times for 10 mins each with 10 mM PBS containing 0.05% Tween-20. Anti-rabbit horse-radish peroxidase conjugate secondary antibodies was diluted into PBS buffer, added to each well and incubated for 1 hr at room temperature. The pin array was washed three times for 10 mins each with 10 mM PBS containing 0.05% Tween-20. A chromogenic substrate of horse-radish peroxidase 3,3′,5,5′-Tetramethylbenzidine (TMB) (Pharmingen, San Diego, Calif.) which is colorless was added, and the reaction was carried out for 45 min.
The reaction was stopped by adding 6N sulfuric acid, which changes the color from blue to yellow. The absorption at 450 nm was measured by an ELISA reader (BioTek, Winooski, Vt.).
The pin array was regenerated by sonication in a water bath (VWR Aquasonic, West Chester, Pa.) with 100 mM PBS, containing 1% Sodium dodecyl sulfate (SDS) and 0.1% 2-Mercaptoethanol @ 60° C. for 10 mins. Next, the pin array was rinsed three times in deionized water, preheated to 60° C. for 30 secs each time, and shaken in water preheated at 60° C. for 30 min. The pin array was then washed with methanol at 60° C. for 15 secs and air-dried and stored @−20° C. for future use. Each target protein was assayed 2-5 times against the human αB crystallin protein pin array peptides to verify the reproducibility of the results. Peptides numbered 5, 7, 8, 9, 13, 19, 22, 23, 24, 27, 35, 38, 45, 51, 52, 56, 57, 61, 66, 71, 72, and 79 in Table 2 reproducibly tested positive in the protein pin assay.

γD crystallin [3] = biological target: T1, γD crystallin; assay: Protein pin array interaction with γD crystallin; type: binding; set-up: purchased; details: unheated γD crystallin; similar peptide sequences with γD crystallin pre-heated at 45° C. for fifteen minutes
Text: as §1, §2, §3, §4
(§6) The amino acid sequences of each 8-mer human αB crystallin peptide immobilized sequentially on 84 pins in a 96-well ELISA plate format are listed on the Y-axis. […]

bovine βH crystallin = assay: Protein pin array interaction with βH crystallin; type: binding; details: unheated βH crystallin; similar maxima with βH crystallin pre-heated at 45° C. for fifteen minutes
Text: as §1, §2, §3, §4, §6

[4] = biological target: T3, equine alcohol dehydrogenase (ADH) (Equus caballus, UniProt P00327); assay: Protein pin array interaction with alcohol dehydrogenase; type: binding; details: ADH as ligand, unheated and pre-heated
T3 construct: purchased
Text: as §1, §2, §3, §4, §5

T3 sequence (P00327 whole entry): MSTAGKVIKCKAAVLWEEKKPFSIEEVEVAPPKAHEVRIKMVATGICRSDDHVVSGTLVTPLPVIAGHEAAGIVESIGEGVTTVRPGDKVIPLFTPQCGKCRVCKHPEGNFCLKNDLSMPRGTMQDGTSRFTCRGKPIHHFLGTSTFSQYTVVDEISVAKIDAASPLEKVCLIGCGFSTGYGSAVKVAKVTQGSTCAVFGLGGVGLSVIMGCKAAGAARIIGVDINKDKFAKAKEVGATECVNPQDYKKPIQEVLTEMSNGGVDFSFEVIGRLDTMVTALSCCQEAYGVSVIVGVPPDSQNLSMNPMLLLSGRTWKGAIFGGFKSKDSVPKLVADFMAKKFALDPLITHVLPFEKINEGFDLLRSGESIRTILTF

STSLSPFYLRPPSFLRAP
effect on the thermal aggregation of βL crystallin (chaperone activity) (βL crystallin): weakest effect
effect on the fibrillization of γD crystallin (γD crystallin [1]): strongest effect

ERTIPITRE
effect on the thermal aggregation of βL crystallin (chaperone activity) (βL crystallin): slightly lower than the HG peptide

αB crystallin: wild type recombinant human αB crystallin, a small heat shock protein and molecular chaperone
Δfluorescence (Aβ) (Aβ): 318,471,040
effect on the fibrillization of γD crystallin (γD crystallin [1]): weakest effect
Δfluorescence (γD crystallin) (γD crystallin [1]; ThioflavinT, 50° C. for 72 hours, no chaperone 888,803,840): 1,079,141,056

FSVNLDVK [Peptide 38]
absorbance at λ=450 nm, interaction with CS [2]: absorbance maxima
protein pin assay result with target protein beta amyloid (beta amyloid): positive
absorbance at λ=450 nm, interaction with γD crystallin (γD crystallin [3]): maximum absorbances
absorbance at λ=450 nm, interaction with βH crystallin (bovine βH crystallin): Maximum absorbances
absorbance at λ=450 nm, interaction with ADH [4]: Maximum absorbances
